Reference: the RNAGym collection of RNA variant scans (doi:10.7554/elife.80360)

B1: HDV Ribozyme (parent)
chain: GGCCGGCAUGGUCCCAGCCUCCUCGCUGGCGCCGGCUGGGCAACAUUCCGAGGGGACCGUCCCCUCGGUAAUGGCGAAUGGGACCCA

Variants of: B1
Assay: self-cleavage, relative activity (ratio to wild type); higher = more cleavage; co-transcriptional

Variant	self-cleavage
G11U U47A	0.397
U12C C64G	0.308
U12A	0.309
U12C	0.399
U12G	0.922
U12A G82A	0.0489
U12C U60C	0.594
U12C U60G	0.399
U12C U47C	0.185
U12A C86U	0.178
U12G C44U	0.598
U12C C33A	0.0386
U12G G17U	0.475
G11U U27G	0.353
U12G C32U	0.399
U12G C32A	0.0639
U12C G39U	0.0723
U12A C63A	0.519
U12A C63U	0.453
G11U U72C	0.231
U12A G17A	0.19
U12A A51G	0.196
U12A G29C	0.0386
U12A C64U	0.178

Variant	self-cleavage
U12A C64A	0.26
G11U G73C	0.126
G11U G73A	0.138
U12C G54C	0.356
G11U G76U	0.596
G11U U46C	0.135
G11U G81U	0.138
U12A C58G	0.383
U12A C58A	0.312
G11U G40U	0.18
G11U G40C	0.0181
U12C C61G	0.32
U12C C61U	0.404
U12A G34A	0.0378
U12A C57U	0.246
U12A C57A	0.256
U12A C44A	0
U12A C44U	0
U12A G81A	0.0554
U12A G80U	0.0968
U12C C49A	0.322
U12C C49G	0.199
U12C C49U	0.166
U12A A16C	0.499

Variant	self-cleavage
U12G A45G	0.959
G11U G67A	0.0875
U12A G54U	0.415
U12C C22G	0
U12G A16U	0.795
U12G A16C	0.831
U12G C49A	0.935
U12G C15G	0
U12A A42G	0.256
U12A A42U	0.119
U12A A42C	0.147
U12G A77C	0
U12C C84G	0.391
U12C G25U	0.0369
G11U U12G	0.199
G11U U12C	0.125
U12A C36U	0.0678
U12C G35C	0.0923
U12G A51U	1.13
U12A C19U	0.0831
U12C G55C	0.447
U12C G80C	0.104
U12C G80A	0.243
U12C G80U	0.18

Variant	self-cleavage
U12C G76C	0.364
U12C G76A	0.344
U12G C58U	0.751
U12G C58G	0.499
U12A C66G	0.375
U12G G25U	0.0573
U12A C62A	0.458
U12A C62G	0.133
U12A A70C	0.332
U12A C24A	0.104
U12G A83U	0.867
U12C A16C	0.302
U12C A16U	1.05
U12G A42G	0.369
U12G A42U	0.415
U12G C75A	0
U12G C14U	1.2
U12C C58A	0.475
U12G C57U	0.831
U12A C18G	0.0405
U12C U23A	0.0594
U12A U23A	0.192
U12A G53U	0.318
U12A A83G	0.302

Variant	self-cleavage
U12C A71G	0.287
U12C A71C	0.0831
G11U U20G	0.0791
U12C G28C	0
U12C G28A	0.0707
U12A C21A	0.0678
G11U U65A	0.321
U12G C66A	0.923
U12G A70U	1.02
U12G C85G	0.369
U12C A83G	0.85
U12C A83C	0.166
G11U G50C	0.359
U12A U37G	0.0536
U12G C13A	0.415
U12A G39A	0.225
U12A C41U	0.147
U12A G38A	0
U12A G38C	0.0489
U12C C57A	0.268
U12C A70G	0.692
U12A G68U	0.312
U12A G68A	0.155
U12C U46A	0

Variant	self-cleavage
U12C U46G	0.0665
U12A U72C	0.277
U12G A56C	0.831
U12C C41U	0.415
U12C C41A	0.388
U12C A42C	0.0489
U12C U72C	0.196
U12C C36G	0.128
G11U G80A	0.136
U12C C32A	0.256
U12A A43U	0.147
U12C G82C	0.0504
U12C G34C	0.115
U12G C30G	0
U12C C48U	0.534
U12C C86U	0.578
U12C A77G	0.302
U12C A77U	0.289
U12A U65G	0
U12G C21U	0.123
U12G C33G	0
U12A G55U	0.185
U12A G55A	0.415
U12A G59A	0.172

Variant	self-cleavage
U12G C24G	0.136
U12G C64U	0.914
U12C G40C	0.0405
U12A C48G	0.415
U12A U69G	0.795
U12A U69C	0.35
U12C G53C	0.332
U12C G73U	0.0811
U12C U20A	0.0723
U12C C85G	0.447
U12A C15U	0.138
U12C G52C	0.287
U12A G74U	0.101
U12C G59A	0.185
U12G C62G	0.437
U12A G52A	0.364
U12C G17A	0.312
U12A C49A	0.128
U12A C32A	0.131
U12A C32G	0.225
U12G C41U	0.982
U12C C30A	0.193
U12C C30U	0.156
